# Assay results published in patent publication US20170115280.
# Molecular target: reconstituted nascent HDL (rHDL) particle made with isolated human apoA-I (UniProt P02647)
# Sequence (P02647 25-267): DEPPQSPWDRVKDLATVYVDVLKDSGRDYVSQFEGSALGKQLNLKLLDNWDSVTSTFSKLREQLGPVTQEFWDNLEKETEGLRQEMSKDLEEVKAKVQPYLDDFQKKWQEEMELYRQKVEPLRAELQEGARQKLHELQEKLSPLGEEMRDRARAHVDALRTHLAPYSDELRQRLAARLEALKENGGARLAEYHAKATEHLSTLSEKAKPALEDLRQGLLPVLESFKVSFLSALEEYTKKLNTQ
Substance,stability of arylesterase activity at 37° C. in the presence of HDL,rate of inactivation of PON1 (arylesterase activity) with EDTA and β-mercaptoethanol in the presence of rHDL
rPON1 Y293K mutant,the Y293K PON1 mutant shows the fastest rate of inactivation,–
rPON1 Y294K mutant,"the rate of Y293K loss in activity is faster than either Y294K or WT PON1, and comparison of Y293K vs. Y294K shows significant difference as well",–
"rPON1 pan K mutant (Leu9→Lys9, Tyr185→Lys185 and Tyr293→Lys293) with C-terminal His8 tag",–,no protective effects were observed when the pan K rPON1 mutant was incubated with either rHDL or detergent
"recombinant paraoxonase 1 (PON1) variant G3C9, His-tagged (rPON1 WT)","when HDL is present, WT PON1 is quite stable at 37 °C",A very slow inactivation of WT rPON1 was observed in the presence of rHDL
